From patent US20180112008A1 (Memorial Sloan Kettering, published 2018)
Ends that are not written are not given here. * marks the point of attachment. GlcNAc2 = N-linked chitobiose, CC(=O)N[C@@H]1[C@@H](O)[C@H](O[C@@H]2O[C@H](CO)[C@@H](O)[C@H](O)[C@H]2NC(C)=O)[C@@H](CO)O[C@H]1*

T1: MUC16 18mer (not fully specified)
T1 construct: also called non-glycosylated 18-mer MUC16 peptide
T1 peptide: CTRNGTQLQNFTLDRSSV

T2: (GlcNAc2)2-18-mer glycopeptide, unconjugated (human)
T2 construct: Used in ELISA without KLH; also called 18-mer(chitobiose)2[C-T22-V38]; 18mer-chitobiose peptide
T2 peptide: Ac-CTRN(GlcNAc2)GTQLQN(GlcNAc2)FTLDRSSV-NH2

T3: MUC16 18mer + GlcNAc2-Trimannose (also: N-linked Man3GlcNAc2, Asn site not given here)
T3 construct: also called 18-mer with Man3GlcNAc2
T3 peptide: CTRNGTQLQNFTLDRSSV

T4: MUC16^c114-N3 (human, chain 1 pos 1 and pos 24: N-glycosylated Asn (cell-made glycans), written N)
T4 construct: MUC16^c114 with Asn30 (Asn1806) changed to Ala, on SKOV3 cells; also called N30 mut c114; SKOV3-N30 mutc114; not shown: hrGFP of the phrGFP II-C vector, fused at the cytoplasmic carboxy-terminus
T4 chain: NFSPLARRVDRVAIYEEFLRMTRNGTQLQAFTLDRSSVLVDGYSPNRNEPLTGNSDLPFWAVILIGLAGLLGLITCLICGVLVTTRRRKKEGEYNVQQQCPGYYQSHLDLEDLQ

T5: MUC16^c114-N1 (human, chain 1 pos 24 and pos 30: N-glycosylated Asn (cell-made glycans), written N)
T5 construct: MUC16^c114 with Asn1 (Asn1777) changed to Ala, on SKOV3 cells; also called N1 mut c114; SKOV3 MUC16^c114-N1; not shown: hrGFP of the phrGFP II-C vector, fused at the cytoplasmic carboxy-terminus
T5 chain: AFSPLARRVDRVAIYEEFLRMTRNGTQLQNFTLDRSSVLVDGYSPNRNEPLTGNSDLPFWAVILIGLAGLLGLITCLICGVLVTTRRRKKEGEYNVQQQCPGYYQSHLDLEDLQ

T6: MUC16^c114 (human, capable of N-glycosylation at Asn1, Asn24 and Asn30 ; chain 1 pos 1, 24, 30: Asn capable of N-glycosylation on the transfected cells, written N)
T6 construct: The forward primer adds Met-Val before Asn1; also called MUC16^c114-GFP; SKOV3 MUC16^c114; not shown: hrGFP of the phrGFP II-C vector fused at the cytoplasmic carboxy-terminus, with its short cloning linker
T6 chain: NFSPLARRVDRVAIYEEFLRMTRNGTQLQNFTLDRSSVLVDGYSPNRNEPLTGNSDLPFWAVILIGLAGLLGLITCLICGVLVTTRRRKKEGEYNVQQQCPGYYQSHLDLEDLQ

T7: MUC16 unrelated peptide 18mer
T7 construct: Negative control peptide without glycan
T7 peptide: GAVPRSATINVSRIATGP

T8: biotinylated chitobiose-conjugated 18-mer glycopeptide (human, also: biotinylated, site not given here)
T8 construct: Cys plus T22-V38 of MUC16^c114; The range is derived from T22-V38 and the statement that c114 is 1777-1890; also called (GlcNAc2)2-18-mer, biotinylated; 18-mer(chitobiose)2[C-T22-V38]
T8 peptide: Ac-CTRN(GlcNAc2)GTQLQN(GlcNAc2)FTLDRSSV-NH2


Key:
MUC16 18mer [1] = target: T1, MUC16 18mer; test: ELISA 12/24/13 (sups from time of freezing), dilution 400, column 18
[2] = target: T2, (GlcNAc2)2-18-mer glycopeptide, …; test: sandwich ELISA on 'MUC16 18mer + GlcNAc2'; Blank 0.029
[3] = target: T3, MUC16 18mer + GlcNAc2-Trimannose; test: sandwich ELISA on 'MUC16 18mer + GlcNAc2-Trimannose'; Blank 0.035
MUC16 18mer [4] = target: T1, MUC16 18mer; test: ELISA during fusion screen, dilution 400, column 18
MUC16^c114-N3 = target: T4, MUC16^c114-N3; test: FACS, SKOV3-N30 mutc114
MUC16^c114-N1 = target: T5, MUC16^c114-N1; test: FACS, SKOV3 transfectant, goat anti-mouse IgG-PE
MUC16^c114 = target: T6, MUC16^c114; test: FACS, SKOV3 transfectant, goat anti-mouse IgG-PE
[5] = target: T7, MUC16 unrelated peptide 18mer; test: sandwich ELISA on 'MUC16 unrelated peptide 18mer'; Blank 0.013
[6] = target: T8, biotinylated chitobiose-conjugated …; test: BLI (Octet QK), biotinylated glycopeptide on streptavidin sensor, antibody 10 ug/mL, 1:1 model
Description: Binding affinity was determined using ForeBio Octet QK. 5 μg/mL of biotinylated chitobiose-conjugated 18-mer glycopeptide was loaded onto a streptavidin biosensor. After washing off excess antigen, mouse antibodies were tested at 10 μg/mL for association and dissociation steps, respectively. Binding parameters were calculated using 1:1 binding site model, partial fit.

Row | ELISA signal (MUC16 18mer [1]) | ELISA signal [2] | ELISA signal [3] | ELISA signal (MUC16 18mer [4]) | geometric mean phycoerythrin (PE) fluorescence (MUC16^c114-N3) | Mean % PE (MUC16^c114-N1) [%] | Mean % PE (MUC16^c114) [%] | ELISA signal [5] | Kd [6] [nM] | koff [6] [s⁻¹] | Binder
1 | 0.45 | 1.06 | 0.89 | 0.39 | 1700 | 83 | 73.1 | 0.02 | 11.1 | 0.000678 | 18C6.D12 (antibody, V domains shown, Mouse monoclonal from a hybridoma; also called MUC16 Glycosylation Antibody 18C6) VH: QVTLKESGPGILQPSQTLSLTCSFSGFSLSTVGMGVGWSRQPSGKGLEWLAHIWWDDEDKYYNPALKSRLTISKDTSKNQVFLKIANVDTADTATYYCTRIGTAQATDALDYWGQGTSVTVSS VL: DIVMTQAAPSVPVTPGESVSISCRSSKSLLHSNGNTYLYWFLQRPGQSPQRLIYYMSNLASGVPDRFSGRGSGTDFTLRISRVEAEDVGVYYCMQSLEYPLTFGGGTKLEIK
2 | 0.2 | 1.1 | 0.99 | 0.38 | 536 | 81.7 | 69.3 | 0.03 | 63.7 | 0.00242 | 19C11.H6 (antibody, V domains shown, Mouse monoclonal from a hybridoma; Used as 89Zr-DFO-labelled antibody in the internalization assay; also called MUC16 Glycosylation Antibody 19C11) VH: QVNLKESGPGKLQPSQTLSLTCSFSGFSLSTLGMGVGWIRQSSGKGLEWLAHIWWDDDKYYNPALKSRLTISRATSKNQVFLKIVNVGTADTATYYCARIGTAQATDALDYWGQGTSVTVSS VL: DIVMTQAAPSIPVTPGESVSISCRSSKSLLHSNGNTYLYWFLQRPGQSPQRLIYYMSNLASGVPDRFSGRGSGTDFTLKISRVEAGDVGVYYCMQGLEHPLTFGGGTKLEIK
3 | 0.33 | 1.06 | 1.05 | 0.53 |  |  |  | 0.04 | 13.8 | 0.00104 | 7B12.B3 (antibody, V domains shown, Mouse monoclonal from a hybridoma; also called MUC16 Glycosylation Antibody 7B12) VH: QVTLKESGPGILQPSQTLSLTCSFSGFSLSTVGMGVGWSRQPSGKGLEWLAHIWWDDEDKYYNPALKSRLTISKDTSKNQVFLKIANVDTADSATYYCTRIGTAQATDALDYWGQGTSVTVSS VL: DIVMTQAAPSVSVTPGESVSISCRSSKSLRKSNGNTYLYWFLQRPGQSPQRLIYYMSNLASGVPDRFSGRGSGTDFTLRISRVEAEDVGVYYCMQSLEYPLTFGGGTKLKIK
